Target: T1, CD79b蛋白 (on CHO-K1-CD79b细胞 / A375-CD79b细胞) (Homo sapiens (Human), UniProt P40259 29-229)
T1 sequence: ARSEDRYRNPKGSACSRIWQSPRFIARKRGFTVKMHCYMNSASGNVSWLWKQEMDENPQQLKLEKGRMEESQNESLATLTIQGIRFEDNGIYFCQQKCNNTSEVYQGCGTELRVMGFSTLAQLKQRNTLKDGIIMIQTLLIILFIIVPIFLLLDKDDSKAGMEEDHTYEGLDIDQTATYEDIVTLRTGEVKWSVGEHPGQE
Assay: flow cytometry on CHO-K1-CD79b cells, Alexa-647 anti-human Fc detection

B1: 抗体CD3×CD79b (bispecific antibody, human IgG1, kappa, L234A L235A)
scFv: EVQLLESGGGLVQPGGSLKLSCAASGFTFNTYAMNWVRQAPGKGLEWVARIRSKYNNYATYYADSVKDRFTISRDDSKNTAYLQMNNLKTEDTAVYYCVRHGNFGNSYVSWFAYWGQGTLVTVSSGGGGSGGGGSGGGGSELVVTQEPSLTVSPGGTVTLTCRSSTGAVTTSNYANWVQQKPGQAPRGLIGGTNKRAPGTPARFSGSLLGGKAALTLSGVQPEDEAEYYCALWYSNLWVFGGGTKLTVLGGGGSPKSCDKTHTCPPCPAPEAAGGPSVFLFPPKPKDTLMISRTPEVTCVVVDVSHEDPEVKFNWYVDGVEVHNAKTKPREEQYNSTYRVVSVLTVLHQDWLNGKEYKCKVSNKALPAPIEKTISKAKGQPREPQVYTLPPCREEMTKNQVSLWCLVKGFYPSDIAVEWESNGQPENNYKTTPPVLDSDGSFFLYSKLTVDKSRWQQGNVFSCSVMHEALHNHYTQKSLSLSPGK
heavy: EVQLVESGGGLVQPGGSLRLSCAASGYTFSSYWIEWVRQAPGKGLEWIGEILPGGGDTNYNEIFKGRATFSADTSKNTAYLQMNSLRAEDTAVYYCTRRVPIRLDYWGQGTLVTVSSASTKGPSVFPLAPSSKSTSGGTAALGCLVKDYFPEPVTVSWNSGALTSGVHTFPAVLQSSGLYSLSSVVTVPSSSLGTQTYICNVNHKPSNTKVDKKVEPKSCDKTHTCPPCPAPEAAGGPSVFLFPPKPKDTLMISRTPEVTCVVVDVSHEDPEVKFNWYVDGVEVHNAKTKPREEQYNSTYRVVSVLTVLHQDWLNGKEYKCKVSNKALPAPIEKTISKAKGQPREPQVCTLPPSREEMTKNQVSLSCAVKGFYPSDIAVEWESNGQPENNYKTTPPVLDSDGSFFLVSKLTVDKSRWQQGNVFSCSVMHEALHNHYTQKSLSLSPGK
light: DIQLTQSPSSLSASVGDRVTITCKASQSVDYEGDSFLNWYQQKPGKAPKLLIYAASNLESGVPSRFSGSGSGTDFTLTISSLQPEDFATYYCQQSNEDPLTFGQGTKVEIKRTVAAPSVFIFPPSDEQLKSGTASVVCLLNNFYPREAKVQWKVDNALQSGNSQESVTEQDSKDSTYSLSSTLTLSKADYEKHKVYACEVTHQGLSSPVTKSFNRGEC
notes: Three-chain knob-into-hole bispecific made in ExpiCHO cells and purified on Protein A; also called CD3×CD79b抗体; CD3×CD79b双特异抗体
Question: Does B1 bind?
Answer: Result: binds

— CN115368446A (HEFEI TIANGANG IMMUNOLOGY PHARMACEUTICAL CO LTD, dated 2022)
